Article PMC11060673

Target: His-LHP1 (recombinant Prunus mume Like Heterochromatin Protein 1) (Prunus mume (Japanese apricot))
Experiment: SPR; BIAcore X-100; PmLHP1 immobilized on a CM5 sensor chip by amine coupling; target protein diluted in a gradient; steady-state affinity model

- Kd: 20.6 µM
Substance: Gst-AGL24 (recombinant Prunus mume AGAMOUS-like 24) (natural protein)
